From PMC9600179

Molecular target: T1, AlgR (Pseudomonas aeruginosa PAO1) (UniProt P26275)
T1 sequence: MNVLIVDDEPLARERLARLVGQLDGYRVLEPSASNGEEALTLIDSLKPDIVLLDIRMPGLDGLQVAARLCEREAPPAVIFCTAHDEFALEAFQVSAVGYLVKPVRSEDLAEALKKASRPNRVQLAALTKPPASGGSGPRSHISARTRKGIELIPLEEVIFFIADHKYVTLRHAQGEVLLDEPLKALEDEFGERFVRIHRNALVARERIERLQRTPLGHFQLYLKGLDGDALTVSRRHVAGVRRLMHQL
Test: EMSA
Details: EMSA: 10 mM Tris-HCl pH 7.4, 50 mM KCl, 5 mM MgCl2, 10% glycerol, 30 min, temperature not stated; 1 ug DIDC (poly dI-dC) with FITC probes in some assays …

Sequence: CGGGTCTTCGTAGGCGTAGCGGGTGCTGCCGGCCGGGCCGCGCACCGTCGTCGCATTGCCCCGTTCGTCGCGCTCGAAGGTCCAGCGGCGCTGCATCGCGTCCTCCAGCTCGACCAGCAGCCCGGTCTCTTCGTCGACGCGCTTGCGATAGCGCGCCTTGCCCGGCGACTCCTCCTCGAGC (double strand) [tse5 CDS fragment]
- binding: binds

Sequence: CTGGCGATGGAAGGCACTCCAATCGAGGTCCGCAGGGCCGACCAGCGCGTCCAGCGAGAAATCGTCGAGCAAAGGGCGTCCGGCGGCCGCACGCAGGGTCAACGGCGCCAAAGGACCGCTCAGCGACGGTGCATCGGCTTCACGCACCACCAGGCTGGCCTGGCAGTCGGCAGCGATATCGGCCAGGGCCTGCTCGCGGGACTT (double strand) [pqsA CDS fragment]
- binding: binds

Sequence: GTACCTCGTCCGGCTCGGCGTCGGCGGTATAGCCGAGGATCAGGATCGGCGCGCGTCGCTCGCACCGTTCCTGGATGCGTATCCTGCGTGCCAGCTGATAGCCGTTCAGGCGCGGCATGTTGCAGTCGCTGATCAGCACCTCGAAGCGCTCGTCGGCCCAGAGCTCCAGCGCCA (double strand) [rocsS2 CDS fragment]
- binding: binds
